Results on 4 molecules are retold here after patent US20160046707A1 (EISAI R AND D MANAGEMENT, published 2016).

Positions count from the first letter of the chain named.

B1: mouse anti-human CCL20 monoclonal antibody 36F7C10 (antibody, V domains shown)
VH: QVQLQQPGAELVKPGASVKMSCKASGYTFTNYWMHWVKQRPGQGLEWIGVIDPSDSYTTYNQKFKGKATLTVDTSSSTAYMQLSSLTSEDSAVYYCTRGNYGVDYAMDYWGQGTSVTVSS
VL: DIQMTQSPASLSASVGETVTITCGASENIYGALNWYQRKQGKSPQLLIYGATNLADGMSSRFSGSGSGRQYSLKISSLHPDDVATYYCQNVLITPYTFGGGTKLEIK
notes: Mouse hybridoma antibody; also called MouseMAb; parental mouse clone 36F7C10
B2: chimeric 36F7C10 antibody (36F7C10-hFc) (antibody, V domains shown)
VH: B1 VH
VL: B1 VL
notes: also called chimeric 36F710; Chimeric MAb
B3: humanized anti-human CCL20 antibody 36LK3/36HC2 (antibody, human IgG1, kappa, V domains shown)
VH: QVQLVQSGAEVKKPGASVKVSCKASGYTFTNYWMHWVRQAPGQGLEWMGVIDPSDSYTTYAQKFQGRVTMTVDTSTSTVYMELSSLRSEDTAVYYCARGNYGVDYAMDYWGQGTLVTVSS
VL: DIQMTQSPSSLSASVGDRVTITCGASENIYGALNWYQRKPGKAPKLLIYGATNLADGVPSRFSGSGSGRDYTLTISSLQPEDFATYYCQNVLITPYTFGQGTKLEIKR
notes: expressed in HEK293 cells; also called HC2/LK3; HC2LK3
B4: humanized anti-human CCL20 antibody 36LC3/36HC2 (antibody, human IgG1, kappa, V domains shown)
VH: B3 VH
VL: B3 VL with G24R, R38Q, D70Q, T72S, Q100G
notes: expressed in HEK293 cells; also called HC2/LC3; HC2LC3

For one experiment, the target named is T1, recombinant human CCL19 (human, UniProt Q99731 22-98).
T1 construct: also called MIP-3b
T1 sequence (looked up): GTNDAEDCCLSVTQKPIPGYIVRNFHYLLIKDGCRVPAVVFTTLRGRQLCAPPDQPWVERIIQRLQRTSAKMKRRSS
Briefly: ELISA, plate-bound chemokine (1 ug/ml), antibody 10 ug/ml, OD450. As to the method: (§1) The wells of a 96-well plate were coated with 1 μg/ml of the recombinant human chemokines in PBS (−). After overnight incubation at 4° C., the wells were blocked with 1× Block-Ace (Dainippon Sumitomo Pharma, UK-B80) for 1 hour at room temperature. After washing twice with 0.02% Tween 20/PBS (−), we added 50 μl of 10 μg/ml purified 36F7C10, chimeric 36F710, HC2/LK3, or HC2/LC3 in 0.02% Tween 20/PBS (−) to each well. The wells were incubated for 1 hour at room temperature and washed three times as described in Example 3. […] After washing five times, a TMBZ (3,3′,5,5′-tetramethylbenzidine) solution (1%, in N,N-Dimethylformamide) was added to the wells and incubated for 15-30 minutes. The reaction was stopped by adding an equal volume of a 2 M H₂SO₄ stopping solution, and the optical density was read at 450 nm by ARVO (PerkinElmer).
In general terms: ELISA stands for enzyme-linked immunosorbent assay.
B1: the binding result is recorded as “no binding (tested: 10 ug/ml)”.
On the same count and under the same terms, the same measure for B2: “no binding (tested: 10 ug/ml)”.
Still for that read-out and setting: the result for B3 reads “no binding (tested: 10 ug/ml)”.
Turning to B4, the binding result was “no binding (tested: 10 ug/ml)”.

In another experiment the target is T2, recombinant human CCL4 (human, UniProt P13236 24-92).
T2 construct: also called MIP-1β
T2 sequence (looked up): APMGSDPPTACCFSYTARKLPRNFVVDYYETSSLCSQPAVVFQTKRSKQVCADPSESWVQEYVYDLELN
Described as above. As to the method: as §1
Regarding B1, the binding result is listed as “no binding (tested: 10 ug/ml)”.
Same read-out and setting: the result for B2 reads “no binding (tested: 10 ug/ml)”; that for B3, “no binding (tested: 10 ug/ml)”; that for B4, “no binding (tested: 10 ug/ml)”.

The next experiment deals with T3, recombinant human CXCL10 (human, UniProt P02778 22-98).
T3 construct: also called IP-10
T3 sequence (looked up): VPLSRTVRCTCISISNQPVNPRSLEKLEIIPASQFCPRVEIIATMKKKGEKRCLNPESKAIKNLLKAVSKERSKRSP
The description is as above. Here is the method:
as §1
On to B1, for which the binding result is given as “no binding (tested: 10 ug/ml)”.
On the same count and under the same terms, the result for B2 reads “no binding (tested: 10 ug/ml)”.
On the same count and under the same terms, the result for B3 reads “no binding (tested: 10 ug/ml)”; that for B4, “no binding (tested: 10 ug/ml)”.

The target of a further experiment is T4, recombinant human CXCL1 (human, UniProt P09341 35-107).
T4 construct: also called GROα
T4 sequence (looked up): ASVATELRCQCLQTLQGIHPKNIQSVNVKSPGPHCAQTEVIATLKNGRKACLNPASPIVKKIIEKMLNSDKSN
Described as above. As to the method:
as §1
Take B1: the binding result is on record as “no binding (tested: 10 ug/ml)”.
The same measure, in the same setting: the result for B2 reads “no binding (tested: 10 ug/ml)”.
Same read-out and setting: the result for B3 reads “no binding (tested: 10 ug/ml)”.
On to B4, for which the binding result is on record as “no binding (tested: 10 ug/ml)”.

The next experiment deals with T5, recombinant human CX3CL1 (Chemokine Domain) (human, UniProt P78423 25-100).
T5 construct: domain: Chemokine Domain; also called FKN
T5 sequence (looked up): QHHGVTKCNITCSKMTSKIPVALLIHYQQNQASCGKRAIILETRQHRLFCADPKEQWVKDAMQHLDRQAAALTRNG
Described as above. Here is the method: as §1
Consider B1, for which the binding result is listed as “no binding (tested: 10 ug/ml)”.
Same read-out and setting: the same measure for B2: “no binding (tested: 10 ug/ml)”.
The same measure, in the same setting: the same measure for B3: “no binding (tested: 10 ug/ml)”.
For B4, the binding result is recorded as “no binding (tested: 10 ug/ml)”.

The target of a further experiment is T6, recombinant human CX3CL1 (Extracellular Domain) (human, UniProt P78423 25-341).
T6 construct: extracellular domain; also called FKN
T6 sequence (looked up): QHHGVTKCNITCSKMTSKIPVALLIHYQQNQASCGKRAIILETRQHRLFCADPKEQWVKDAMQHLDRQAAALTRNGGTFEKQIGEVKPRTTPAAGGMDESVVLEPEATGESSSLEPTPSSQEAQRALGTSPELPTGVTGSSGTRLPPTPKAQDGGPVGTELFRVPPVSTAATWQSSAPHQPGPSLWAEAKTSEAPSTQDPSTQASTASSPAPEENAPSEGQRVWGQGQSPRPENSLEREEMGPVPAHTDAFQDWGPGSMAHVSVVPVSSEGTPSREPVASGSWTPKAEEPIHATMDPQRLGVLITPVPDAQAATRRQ
The description is as above. As to the method: as §1
For B1, the binding result is “no binding (tested: 10 ug/ml)”.
Same read-out and setting: the same measure for B2: “no binding (tested: 10 ug/ml)”; for B3: “no binding (tested: 10 ug/ml)”; for B4: “no binding (tested: 10 ug/ml)”.

The target of a further experiment is T7, human CCL20 anchored via a His-tag (human, UniProt P78556 27-96).
T7 construct: Construct not described; also called His-tag anchored CCL20; not shown: His-tag
T7 sequence (P78556 27-96 limits assumed): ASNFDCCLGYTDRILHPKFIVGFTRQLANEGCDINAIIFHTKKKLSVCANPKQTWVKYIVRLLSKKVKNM
As to the kind of experiment: ELISA on His-tag anchored human CCL20, antibody titrated (x axis 'Ab conc. (ug/ml)', falling from left to right), Abs 450.
For orientation: EC50 (read off the curve) means the concentration needed to bring the measured effect to its halfway point. A low value points to higher potency in that assay. Consider B1, for which the “EC50 (read off the curve)” value is about 5 ng/mL.
The same measure, in the same setting: the same measure for B2: about 8 ng/mL; for B3: about 6 ng/mL; for B4: about 6 ng/mL.

The target of a further experiment is T8, mouse CCL20-secreted alkaline phosphatase (SEAP) fusion (mouse, UniProt O89093 28-97).
T8 construct: Expressed in HEK293E, used as culture supernatant; also called SEAP-tagged mouse CCL20; mCCL20; not shown: secreted alkaline phosphatase (SEAP), cDNA from pSEAP-Enhancer vector (Clontech)
T8 sequence: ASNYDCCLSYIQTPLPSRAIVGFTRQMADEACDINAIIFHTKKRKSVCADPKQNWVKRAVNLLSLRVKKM
Briefly: ELISA (fluorescent HRP substrate): CCL20-SEAP captured on anti-alkaline phosphatase in 5-fold dilutions from 20 nM (x axis, nM), antibody at 1 ug/ml. As to the method: To test whether the chimeric and humanized antibodies can bind to mouse, cynomolgus, or rhesus macaque CCL20 orthologs, we used ELISA assays as illustrated in FIG. 15. Recombinant secreted alkaline phosphatase (SEAP)-chemokine fusion proteins were engineered as described in Example 2, expressed and purified for all of the CCL20 orthologs tested. Nunc MaxiSorb flat-bottom black plates were coated with 1 μg/ml mouse anti-placental alkaline phosphatase antibody (Pierce, cat# MA1-19354) in 50 mM sodium bicarbonate, pH 9.4, overnight at 4° C. Plates were then blocked using 1× phosphate buffered saline with Tween-20 (PBST) with 5% bovine serum albumin (BSA) for 2 hours at room temperature. 20 nM SEAP-CCL20 fusion proteins were serially diluted 5-fold in Opti-MEM medium (Invitrogen). Chimeric and humanized (HC2/LC3 and HC2/LK3) antibodies were diluted to 1 μg/ml in 1×PBST with 5% BSA, added to the plates, and incubated for 1 hr at room temperature. The plates were then washed with 1×PBST with 5% BSA three times. […] QuantaBlu fluorescent HRP substrate (Pierce cat#15169) was added for detection of bound antibody by measuring fluorescence in a Molecular Devices M5 (Excitation 325 nm/Emission 420 nm) plate reader.
While the hamster anti-mouse CCL20 antibody 2F5-5 MAb bound mouse CCL20 with a 50% effective dose (EC₅₀) of 64 pM (data not shown), neither the chimeric nor humanized anti-human CCL20 antibodies bound detectably to mouse CCL20 or rat CCL20 under the conditions described above. By contrast, both the chimeric and humanized antibodies effectively bound to human, rhesus, and cynomolgus CCL20 (FIGS. 16A-C, 17A and B).
B2: the binding result is listed as “no binding (tested: 20 nM)”.
On the same count and under the same terms, the same measure for B3: “no binding (tested: 20 nM)”; for B4: “no binding (tested: 20 nM)”.
